Results from the supplement of paper PMC11246515.
± gives the standard deviation of the averaged measurements.

Assay: total protein half-life in vivo (active degradation + dilution); higher = more stable protein
[1] = E. coli NCM3722 delta-clpP, growth: N-lim chemostat, doubling time 6 h
[2] = E. coli NCM3722 delta-hslV, growth: N-lim chemostat, doubling time 6 h
[3] = E. coli NCM3722 delta-lon, growth: N-lim chemostat, doubling time 6 h
[4] = E. coli NCM3722 delta-smpB, growth: N-lim chemostat, doubling time 6 h
[5] = wild type E. coli NCM3722, growth: C-lim chemostat, doubling time 3 h
[6] = wild type E. coli NCM3722, growth: C-lim chemostat, doubling time 6 h
[7] = wild type E. coli NCM3722, growth: C-lim chemostat, doubling time 12 h
[8] = wild type E. coli NCM3722, growth: N-lim chemostat, doubling time 6 h
[9] = wild type E. coli NCM3722, growth: N-lim chemostat, doubling time 12 h
[10] = wild type E. coli NCM3722, growth: P-lim chemostat, doubling time 6 h
[11] = wild type E. coli NCM3722, growth: P-lim chemostat, doubling time 12 h
[12] = E. coli NCM3722 delta-clpP delta-lon delta-hslV, growth: N-lim chemostat, doubling time 6 h

Row | Sequence | total protein half-life in vivo [1] | total protein half-life in vivo [2] | total protein half-life in vivo [3] | total protein half-life in vivo [4] | total protein half-life in vivo [5] | total protein half-life in vivo [6] | total protein half-life in vivo [7] | total protein half-life in vivo [8] | total protein half-life in vivo [9] | total protein half-life in vivo [10] | total protein half-life in vivo [11] | total protein half-life in vivo [12]
1 | MKLRWFAFLIVLLAGCSSKHDYTNPPWNAKVPVQRAMQWMPISQKAGAAWGVDPQLITAIIAIESGGNPNAVSKSNAIGLMQLKASTSGRDVYRRMGWSGEPTTSELKNPERNISMGAAYLNILETGPLAGIEDPKVLQYALVVSYANGAGALLRTFSSDRKKAISKINDLDADEFLEHVARNHPAPQAPRYIYKLEQALDAM [P0C960] | 4.98 ± 0.62 h | 3.8 ± 0.54 h | 3.57 ± 0.47 h | 2.72 ± 0.08 h | 1.97 ± 0.14 h | 2.98 ± 0.34 h | 6.46 ± 0.21 h | 2.84 ± 0.17 h | 3.2 h | 4 ± 0.3 h | 7.81 ± 0.18 h | –
2 | MRRLPGILLLTGAALVVIAALLVSGLRIALPHLDAWRPEILNKIESATGMPVEASQLSASWQNFGPTLEAHDIRAELKDGGEFSVKRVTLALDVWQSLLHMRWQFRDLTFWQLRFRTNTPITSGGSDDSLEASHISDLFLRQFDHFDLRDSEVSFLTPSGQRAELAIPQLTWLNDPRRHRAEGLVSLSSLTGQHGVMQVRMDLRDDEGLLSNGRVWLQADDIDLKPWLGKWMQDNIALETAQFSLEGWMTIDKGDVTGGDVWLKQGGASWLGEKQTHTLSVDNLTAHITRENPGWQFSIPDTRITMDGKPWPSGALTLAWIPEQDVGGKDNKRSDELRIRASNLELAGLEGIRPLAAKLSPALGDVWRSTQPSGKINTLALDIPLQAADKTRFQASWSDLAWKQWKLLPGAEHFSGTLSGSVENGLLTASMKQAKMPYETVFRAPLEIADGQATISWLNNNKGFQLDGRNIDVKAKAVHARGGFRYLQPANDEPWLGILAGISTDDGSQAWRYFPENLMGKDLVDYLSGAIQGGEADNATLVYGGNPQLFPYKHNEGQFEVLVPLRNAKFAFQPDWPALTNLDIELDFINDGLWMKTDGVNLGGVRASNLTAVIPDYSKEKLLIDADIKGPGKAVGPYFDETPLKDSLGATLQELQLDGDVNARLHLDIPLNGELVTAKGEVTLRNNSLFIKPLDSTLKNLSGKFSFINSDLQSEPLTASWFNQPLNVDFSTKEGAKAYQVAVNLNGNWQPAKTGVLPEAVNEALSGSVAWDGKVGIDLPYHAGATYNIELNGDLKNVSSHLPSPLAKPAGEPLAVNVKVDGNLNSFELTGQAGADNHFNSRWLLGQKLTLDRAIWAADSKTLPPLPEQSGVELNMPPMNGAEWLALFQKGAAESVGGAASFPQHITLRTPMLSLGNQQWNNLSIVSQPTANGTLVEAQGREINATLAMRNNAPWLANIKYLYYNPSVAKTRGDSTPSSPFPTTERINFRGWPDAQIRCTECWFWGQKFGRIDSDITISGDTLTLTNGLIDTGFSRLTADGEWVNNPGNERTSLKGKLRGQKIDAAAEFFGVTTPIRQSSFNVDYDLHWRKAPWQPDEATLNGIIHTQLGKGEITEINTGHAGQLLRLLSVDALMRKLRFDFRDTFGEGFYFDSIRSTAWIKDGVMHTDDTLVDGLEADIAMKGSVNLVRRDLNMEAVVAPEISATVGVAAAFAVNPIVGAAVFAASKVLGPLWSKVSILRYHISGPLDDPQINEVLRQPRKEKAQ | 6.38 ± 0.3 h | 6.18 ± 0.12 h | 6.21 ± 0.18 h | 5.844 ± 0.013 h | 3.185 ± 0.015 h | 6.62 ± 0.46 h | 12.6 ± 0.73 h | 6.11 ± 0.16 h | 12.2 ± 1.2 h | 5.67 ± 0.26 h | 9.67 ± 1.6 h | 6.25 ± 0.48 h
3 | MMNDSFCRIIAGEIQARPEQVDAAVRLLDEGNTVPFIARYRKEITGGLDDTQLRNLETRLSYLRELEERRQAILKSISEQGKLTDDLAKAINATLSKTELEDLYLPYKPKRRTRGQIAIEAGLEPLADLLWSDPSHTPEVAAAQYVYADKGVADTKAALDGARYILMERFAEDAALLAKVRDYLWKNAHLVSTVVSGKEEEGAKFRDYFDHHEPLSTVPSHRALAMFRGRNEGVLQLSLNADPQFDEPPKESYCEQIIMDHLGLRLNNAPADSWRKGVVSWTWRIKVLMHLETELMGTVRERAEDEAINVFARNLHDLLMAAPAGLRATMGLDPGLRTGVKVAVVDATGKLVATDTIYPHTGQAAKAAMTVAALCEKHNVELVAIGNGTASRETERFYLDVQKQFPKVTAQKVIVSEAGASVYSASELAAQEFPDLDVSLRGAVSIARRLQDPLAELVKIDPKSIGVGQYQHDVSQTQLARKLDAVVEDCVNAVGVDLNTASVPLLTRVAGLTRMMAQNIVAWRDENGQFQNRQQLLKVSRLGPKAFEQCAGFLRINHGDNPLDASTVHPEAYPVVERILAATQQALKDLMGNSSELRNLKASDFTDEKFGVPTVTDIIKELEKPGRDPRPEFKTAQFADGVETMNDLQPGMILEGAVTNVTNFGAFVDIGVHQDGLVHISSLSNKFVEDPHTVVKAGDIVKVKVLEVDLQRKRIALTMRLDEQPGETNARRGGGNERPQNNRPAAKPRGREAQPAGNSAMMDALAAAMGKKR | 4.8 ± 0.3 h | 3.58 ± 0.041 h | 4.124 ± 0.019 h | 3.26 ± 0.074 h | 2.49 ± 0.14 h | 4.69 ± 0.19 h | 7.55 ± 0.32 h | 3.63 ± 0.087 h | 5.457 ± 0.049 h | 3.88 ± 0.065 h | 6.81 ± 0.56 h | 5.48 ± 0.19 h
4 | MDICSRNKKLTIRRPAILVALALLLCSCKSTPPESMVTPPAGSKPPATTQQSSQPMRGIWLATVSRLDWPPVSSVNISNPTSRARVQQQAMIDKLDHLQRLGINTVFFQVKPDGTALWPSKILPWSDLMTGKIGENPGYDPLQFMLDEAHKRGMKVHAWFNPYRVSVNTKPGTIRELNSTLSQQPASVYVQHRDWIRTSGDRFVLDPGIPEVQDWITSIVAEVVSRYPVDGVQFDDYFYTESPGSRLNDNETYRKYGGAFASKADWRRNNTQQLIAKVSHTIKSIKPGVEFGVSPAGVWRNRSHDPLGSDTRGAAAYDESYADTRRWVEQGLLDYIAPQIYWPFSRSAARYDVLAKWWADVVKPTRTRLYIGIAFYKVGEPSKIEPDWMINGGVPELKKQLDLNDAVPEISGTILFREDYLNKPQTQQAVSYLQSRWGS | 4.93 ± 1.2 h | 1.61 h | 2.787 ± 0.01 h | 1.73 ± 0.075 h | – | – | – | 1.89 ± 0.55 h | 3.44 ± 0.99 h | 2.29 ± 0.57 h | 4.65 ± 0.26 h | > 8 h
5 | MLMITSFANPRVAQAFVDYMATQGVILTIQQHNQSDVWLADESQAERVRAELARFLENPADPRYLAASWQAGHTGSGLHYRRYPFFAALRERAGPVTWVMMIACVVVFIAMQILGDQEVMLWLAWPFDPTLKFEFWRYFTHALMHFSLMHILFNLLWWWYLGGAVEKRLGSGKLIVITLISALLSGYVQQKFSGPWFGGLSGVVYALMGYVWLRGERDPQSGIYLQRGLIIFALIWIVAGWFDLFGMSMANGAHIAGLAVGLAMAFVDSLNARKRK | 7.254 ± 0.027 h | – | – | 4.85 h | – | 5.67 h | 7.94 h | – | 11.7 h | 5.84 h | 11.6 ± 1.8 h | 5.94 ± 0.09 h
6 | MKLQQLRYIVEVVNHNLNVSSTAEGLYTSQPGISKQVRMLEDELGIQIFSRSGKHLTQVTPAGQEIIRIAREVLSKVDAIKSVAGEHTWPDKGSLYIATTHTQARYALPNVIKGFIERYPRVSLHMHQGSPTQIADAVSKGNADFAIATEALHLYEDLVMLPCYHWNRAIVVTPDHPLAGKKAITIEELAQYPLVTYTFGFTGRSELDTAFNRAGLTPRIVFTATDADVIKTYVRLGLGVGVIASMAVDPVADPDLVRVDAHDIFSHSTTKIGFRRSTFLRSYMYDFIQRFAPHLTRDVVDAAVALRSNEEIEVMFKDIKLPEK [P0A9F3] | 4.65 ± 0.091 h | 5.88 ± 0.65 h | 5.93 ± 0.08 h | 4.96 ± 0.18 h | 2.98 ± 0.23 h | 5.63 ± 0.12 h | 10 ± 1.2 h | 5.41 ± 0.36 h | 11 ± 0.51 h | 4.01 ± 0.32 h | 7.28 ± 0.33 h | 7.08 ± 0.39 h
7 | MNMLEKIQSQLEHLSKSERKVAEVILASPDNAIHSSIAAMALEANVSEPTVNRFCRSMDTRGFPDFKLHLAQSLANGTPYVNRNVNEDDSVESYTGKIFESAMATLDHVRHSLDKSAINRAVDLLTQAKKIAFFGLGSSAAVAHDAMNKFFRFNVPVVYSDDIVLQRMSCMNCSDGDVVVLISHTGRTKNLVELAQLARENDAMVIALTSAGTPLAREATLAITLDVPEDTDIYMPMVSRLAQLTVIDVLATGFTLRRGAKFRDNLKRVKEALKESRFDKQLLNLSDDR | 4.86 ± 0.47 h | 3.12 ± 0.53 h | 3.65 ± 0.91 h | 3.23 ± 0.018 h | 2.26 ± 0.21 h | 4.52 ± 1.7 h | 5.45 ± 0.083 h | 3.77 ± 0.28 h | 4.38 ± 0.15 h | 2 ± 0.28 h | 4.1 ± 1.5 h | 6.3 ± 1.1 h
8 | MMKTVNELIKDINSLTSHLHEKDFLLTWEQTPDELKQVLDVAAALKALRAENISTKVFNSGLGISVFRDNSTRTRFSYASALNLLGLAQQDLDEGKSQIAHGETVRETANMISFCADAIGIRDDMYLGAGNAYMREVGAALDDGYKQGVLPQRPALVNLQCDIDHPTQSMADLAWLREHFGSLENLKGKKIAMTWAYSPSYGKPLSVPQGIIGLMTRFGMDVTLAHPEGYDLIPDVVEVAKNNAKASGGSFRQVTSMEEAFKDADIVYPKSWAPYKVMEERTELLRANDHEGLKALEKQCLAQNAQHKDWHCTEEMMELTRDGEALYMHCLPADISGVSCKEGEVTEGVFEKYRIATYKEASWKPYIIAAMILSRKYAKPGALLEQLLKEAQERVK | 2.63 h | 2.5 ± 0.084 h | 3.03 h | 2.82 ± 0.23 h | 2.94 ± 0.24 h | 4.89 ± 0.37 h | 9.18 ± 0.49 h | 2.53 h | 3.87 ± 0.06 h | – | – | 4.89 ± 0.5 h
